In paper PMC5770967, “Phosphorylation of the IDP KID Modulates Affinity for KIX by Increasing the Lifetime of the Complex” (Biophysical Journal, 2017):
Where two headings read alike, the source gives them in different places. Non-standard residues stand in square brackets, D forms with d. No end group written: not given here. *: point of attachment. FITC = O=C1OC2(c3ccc(O)cc3Oc3cc(O)ccc32)c2ccc(NC(=S)*)cc21; pS = N[C@@H](COP(=O)(O)O)C(=O)O

Experiments:
KIX KIX [1] = target: KIX KIX (UniProt P45481); settings: cited from earlier work
KIX KIX [2] = target: KIX KIX (UniProt P45481); assay: NMR; settings: cited from earlier work
[3] = target: T1, KIX domain of CREB-binding protein (UniProt P45481 586-665); assay: fluorescence polarisation; fluorescence anisotropy equilibrium binding; 1 uM FITC-peptide with varying KIX, 30 min, 10 C; 100 mM sodium phosphate pH 7.5, 0.05% Tween; settings: both partners purified
[4] = target: T1, KIX domain of CREB-binding protein; assay: stopped-flow fluorescence association kinetics; pseudo-first-order, KIX in 10-fold or larger excess over FITC-peptide; double exponential fits; 10 C; 100 mM sodium phosphate pH 7.5, 0.05% Tween; settings: both partners purified
[5] = target: T1, KIX domain of CREB-binding protein; assay: stopped-flow fluorescence out-competition dissociation kinetics; KIX:FITC-(p)KID complex rapidly mixed with unlabeled cMybTAD; single exponentials; asymptote gives k_diss; 10 C; 100 mM sodium phosphate pH 7.5, 0.05% Tween; settings: both partners purified
[6] = target: T1, KIX domain of CREB-binding protein; assay: as above; settings: both partners purified; remark: listed apart in the source

T1 sequence (P45481 586-665): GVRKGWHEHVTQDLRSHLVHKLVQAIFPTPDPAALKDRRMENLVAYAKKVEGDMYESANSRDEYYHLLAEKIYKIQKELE
Sequence of KIX KIX (P45481 586-665): as above

In the case of pKID29 KID (from UniProt P16220), the Kd (KIX KIX [1]) is listed as 8.3 µM.

In the case of pKID KID (from UniProt P15337), the Kd (KIX KIX [2]) is listed as 1300 nM.

B1: FITC-pKID (phosphorylated KID of CREB, residues 116-146, N-terminus labeled with FITC) (peptide, UniProt P15337-1 116-146, looked up)
peptide: {FITC}-DSVTDSQKRREILSRRP[pS]YRKILNDLSSDAP
notes: kinase inducible domain (KID) of CREB, UniProt P15337, residues 116-146 (31 residues), phosphorylated at S133; source: synthetic peptide, bought: Biomatik
In the case of B1, the Kd [3] is reported as 0.11 µM, the “k_ass,fast (fast phase of association)” value [4] is reported as 7.3 ± 0.3 µM⁻¹ s⁻¹ and the “k_ass,slow (slow phase of association)” value [4] is reported as 24.2 ± 1.4 s⁻¹. For the same molecule, the “half-life of the complex” value [5] was roughly 1 s and the koff [6] was 0.81 ± 0.01 s⁻¹.

B2: FITC-KID (kinase inducible domain of CREB, residues 116-146, unphosphorylated, N-terminus labeled with FITC) (peptide, UniProt P15337-1 116-146, looked up)
peptide: {FITC}-DSVTDSQKRREILSRRPSYRKILNDLSSDAP
notes: also called unphosphorylated KID; source: synthetic peptide, bought: Biomatik
For B2, the Kd [3] was 29 ± 1 µM, the “k_ass,fast (fast phase of association)” value [4] was 7.6 ± 0.8 µM⁻¹ s⁻¹ and the “k_ass,slow (slow phase of association)” value [4] was 21.2 ± 2.4 s⁻¹. For the same molecule, the “half-life of the complex” value [5] was roughly 0.01 s and the koff [6] was 66.3 ± 4.9 s⁻¹.

B3: FITC-KID-S133E (KID of CREB, residues 116-146, S133E, N-terminus labeled with FITC) (peptide, UniProt P15337-1 116-146, looked up)
peptide: {FITC}-DSVTDSQKRREILSRRPEYRKILNDLSSDAP
notes: kinase inducible domain (KID) of CREB, UniProt P15337, residues 116-146, with S133E; also called the phosphomimetic; source: synthetic peptide, bought: Biomatik
In the case of B3, the Kd [3] is reported as 12.3 ± 0.5 µM, the “k_ass,fast (fast phase of association)” value [4] is reported as 4.4 ± 0.2 µM⁻¹ s⁻¹ and the “k_ass,slow (slow phase of association)” value [4] is reported as 17 ± 1 s⁻¹. For the same molecule, the koff [6] was 35.6 ± 2.2 s⁻¹.
